Laboratory results taken from patent US20120219545A1.

How the values were obtained:
[1] = biological target: serum IgE of subject 2 (human); assay: ELISA inhibition; serum of subject 2 preincubated with rSCP, IgE binding to plate-coated boiled shrimp extract
[2] = biological target: serum IgE of subject 43 (human); assay: ELISA inhibition; serum of subject 43 preincubated with rSCP (printed 25 mg/mL), IgE binding to plate-coated boiled shrimp extract
[3] = biological target: IgE of the serum pool of subjects 14, 47 and 48 (human); assay: cell-based or functional assay

maximal inhibition [1]: 48%
maximal inhibition [2]: 79%
mediator release (beta-hexosaminidase) from RBL-2H3 cells (% of total possible release) [3]: 30
mediator release (beta-hexosaminidase) from RBL-2H3 cells ([3]; scale: % of the release obtained with BS extract): 65
B1: recombinant shrimp sarcoplasmic calcium-binding protein (rSCP) (protein, not shown: small tags and cut ends)
chain: MAYSWDNRVKYVVRYMYDIDNNGFLDKNDFECLAVRNTLIEGRGEFSADAYANNQKIMRNLWNEIAELADFNKDGEVTVDEFKQAVQKHCQGKKYGDFPGAFKVFIANQFKAIDVNGDGKVGLDEYRLDCITRSAFAEVKEIDDAYNKLTTEDDRKAGGLTLERYQDLYAQFISNPDESCSACYLFGPLKVVQ
